Experimental data from patent US20180064666A1 (BETH ISRAEL DEACONESS MEDICAL CENTER, published 2018).

Legend:
[1] = biological target: T1, Erk2 (endogenous, member of Erk1/2) (human (endogenous in human cell lines), UniProt P28482 2-360); test: reciprocal co-IP from HMLE lysates, western blot (FIG. 45C)
T1 construct: one entry is written for each member; also called total Erk1/2

[2] = biological target: T2, Erk1 (endogenous, member of Erk1/2) (human (endogenous in human cell lines), UniProt P27361 2-379); test: as above
T2 construct: one entry is written for each member; also called total Erk1/2

[3] = biological target: p-Erk2 (phosphorylated Erk2, member of p-Erk1/2) (human (endogenous in human cell lines), UniProt P28482 2-360, phosphorylated (p-Erk1/2, induced by constitutively active MEK1); sites not given); test: co-IP from HEK293 cells (FIG. 45D)
[4] = biological target: p-Erk1 (phosphorylated Erk1, member of p-Erk1/2) (human (endogenous in human cell lines), UniProt P27361 2-379, phosphorylated (p-Erk1/2, induced by constitutively active MEK1); sites not given); test: co-IP from HEK293 cells (FIG. 45D)
[5] = biological target: T1, Erk2 (endogenous, member of Erk1/2); test: co-IP from HEK293 cells (FIG. 45D)
[6] = biological target: T2, Erk1 (endogenous, member of Erk1/2); test: co-IP from HEK293 cells (FIG. 45D)

Measured: binding result

T1 sequence (P28482 2-360 limits assumed): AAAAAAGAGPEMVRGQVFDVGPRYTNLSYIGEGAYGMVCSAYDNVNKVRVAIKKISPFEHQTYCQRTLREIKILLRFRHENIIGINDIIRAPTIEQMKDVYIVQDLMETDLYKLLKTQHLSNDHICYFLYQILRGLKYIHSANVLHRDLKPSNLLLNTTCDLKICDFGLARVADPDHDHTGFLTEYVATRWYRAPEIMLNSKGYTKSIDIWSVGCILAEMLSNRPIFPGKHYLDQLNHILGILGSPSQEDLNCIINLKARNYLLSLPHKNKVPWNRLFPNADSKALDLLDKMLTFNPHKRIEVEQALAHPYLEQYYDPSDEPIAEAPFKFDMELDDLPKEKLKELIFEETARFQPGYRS
T2 sequence (P27361 2-379 limits assumed): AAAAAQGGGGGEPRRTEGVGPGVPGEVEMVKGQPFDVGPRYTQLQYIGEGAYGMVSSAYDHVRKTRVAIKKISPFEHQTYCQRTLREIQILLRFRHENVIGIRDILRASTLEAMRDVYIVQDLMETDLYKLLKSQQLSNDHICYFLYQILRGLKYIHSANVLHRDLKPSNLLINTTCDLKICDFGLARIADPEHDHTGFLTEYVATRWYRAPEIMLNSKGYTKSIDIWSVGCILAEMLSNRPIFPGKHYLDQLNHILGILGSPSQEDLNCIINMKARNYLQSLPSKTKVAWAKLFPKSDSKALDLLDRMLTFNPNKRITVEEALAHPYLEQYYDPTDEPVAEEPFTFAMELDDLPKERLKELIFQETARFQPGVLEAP
p-Erk2 (phosphorylated Erk2, member of p-Erk1/2), sequence (P28482 2-360 limits assumed): as the sequence (P28482 2-360 limits assumed) above
p-Erk1 (phosphorylated Erk1, member of p-Erk1/2), sequence (P27361 2-379 limits assumed): as the sequence (P27361 2-379 limits assumed) above

B1: endogenous Rab2A (enzyme, human (endogenous in human HMLE cells), UniProt P61019 2-212, looked up)
chain: AYAYLFKYIIIGDTGVGKSCLLLQFTDKRFQPVHDLTIGVEFGARMITIDGKQIKLQIWDTAGQESFRSITRSYYRGAAGALLVYDITRRDTFNHLTTWLEDARQHSNSNMVIMLIGNKSDLESRREVKKEEGEAFAREHGLIFMETSAKTASNVEEAFINTAKEIYEKIQEGVFDINNEANGIKIGPQHAATNATHAGNQGGQQAGGGCC
binds: [1] | [2]

B2: Flag-Rab2A (enzyme, UniProt P61019 1-212, looked up, not shown: small tags and cut ends)
chain: MAYAYLFKYIIIGDTGVGKSCLLLQFTDKRFQPVHDLTIGVEFGARMITIDGKQIKLQIWDTAGQESFRSITRSYYRGAAGALLVYDITRRDTFNHLTTWLEDARQHSNSNMVIMLIGNKSDLESRREVKKEEGEAFAREHGLIFMETSAKTASNVEEAFINTAKEIYEKIQEGVFDINNEANGIKIGPQHAATNATHAGNQGGQQAGGGCC
notes: also called wild-type Rab2A
binds: [3] | [4] | [5] | [6]
